Patent publication US20230183329A1, “COMBINATION THERAPY FOR TTR AMYLOIDOSIS” (Neurimmune AG, priority 2020, published 2023)

What was measured:
[1] = cited from earlier work
[2] = target: T1, mis.WT-TTR aggregates (Homo sapiens, UniProt P02766); assay: Direct ELISA, NI-301.37F1 binding to amyloid wtTTR aggregates in presence of TTR tetramer stabilizers; conditions: for EC50 value of antibody binding to TTR amyloid: versus vehicle
T1 construct: Plasma-purified wtTTR was provided as a solution at a concentration of 2 mg/mL in PBS buffer; from tissue; host or cells: human plasma
Method: 96 well microplates were coated for 1 hour at 37° C. with mis.WT-TTR aggregates diluted to a concentration of 10 μg/mL in PBS buffer pH7.4. Non-specific binding sites were blocked for 1 hour at room temperature (RT) with a blocking buffer containing 2% bovine serum albumin (BSA) and 0.1% tween-20 in PBS buffer. Human NI-301.37F1 antibody was diluted in duplicates to the indicated concentrations in PBS supplemented with tafamidis or diflunisal at 10 μg/mL or corresponding concentration of vehicle buffer, and incubated overnight at 4° C. Binding was determined using an anti-human IgG antibody conjugated with horseradish peroxidase (HRP), followed by measurement of HRP activity in a standard colorimetric assay.
Data were analyzed with the Prism software from GraphPad. EC50 values were estimated using non-linear regression of individual data points using log(agonist) versus response model with variable slope. Data fitting was performed with the least square regression method.
For the assessment of the binding affinity of anti-TTR antibody in the presence of TTR tetramer stabilizer direct ELISA and EC50 determination has been substantially performed in Example 3 of WO 2015/092077 A1. ELISA plates were coated for 1 h at 37° C. with amyloid wtTTR aggregates and blocked for 1 h at room temperature with blocking buffer (PBS pH 7.4, 1% BSA and 0.1% polysorbate 20).
Tafamidis and diflunisal were dissolved in vehicle (80% PBS pH 7.4, 10% ethanol, 10% polysorbate 80) and antibody NI-301.37F1 dilution series were prepared with tafamidis or diflunisal at a final concentration of 10 μg/mL or a corresponding volume of the vehicle. The concentration of 10 μg/mL is […] the maximal peak concentration in patients treated with tafamidis at 80 mg per day (˜6 μg/mL). NI-301.37F1 dilution series were incubated in the ELISA plates overnight at 4° C., and, after washes, NI-301.37F1 was detected using an horseradish peroxidase (HRP)-coupled anti-human IgG antibody and standard detection methods. Data were analyzed with the Prism software from GraphPad. […]

[3] = target: T2, soluble ATTR oligomers (mis.WT-TTR) (Homo sapiens, UniProt P02766); assay: BLI binding kinetic assay, soluble ATTR oligomers; conditions: in presence or absence of AG10 or diflunisal at 5 μg/mL
T2 construct: Plasma-purified wtTTR was provided as a solution at a concentration of 2 mg/mL in PBS buffer; from tissue; host or cells: human plasma
Method: (§1) The antibody NI-301.37F1 was loaded on anti-human capture sensors at 5 μg/mL in PBS for 5 min at 25° C. The binding assay was performed with soluble WT-TTR amyloid aggregates and tetrameric WT-TTR. A baseline was performed in 1× kinetic buffer for 3 min, the association was measured for 10 min and the dissociation for another 10 min in 1× kinetic buffer, all steps performed at 25° C. with shaking at 1000 rpm. A reference sample was also included consisting in 1× kinetic buffer.
(§2) Data were analyzed in ForteBio Data Analysis 8.2 software, using reference subtraction and interstep correction between association and dissociation.
NI-301.37F1 absent binding to TTR tetramers was investigated in presence and absence of TTR stabilizers using BLI. Soluble ATTR oligomers were included in this experiment to serve as positive controls.
NI-301.37F1 binding to ATTR oligomers and TTR tetramers was evaluated in presence of the TTR stabilizers AG10 and diflunisal at 5 μg/mL, or in presence of corresponding vehicle buffer using BLI.

[4] = target: T3, TTR tetramers (tetr.WT-TTR) (Homo sapiens, UniProt P02766); assay: BLI binding kinetic assay, TTR tetramers
T3 construct: Plasma-purified wtTTR was provided as a solution at a concentration of 2 mg/mL in PBS buffer; from tissue; host or cells: human plasma
Method: as §1, §2
NI-301.37F1 absent binding to TTR tetramers was investigated in presence and absence of TTR stabilizers using BLI. Soluble ATTR oligomers were included in this experiment to serve as positive controls. […]

[5] = target: misfolded TTR (Homo sapiens, UniProt P02766); conditions: cited from earlier work

## O=C(O)c1ccc2nc(-c3cc(Cl)cc(Cl)c3)oc2c1 [tafamidis]
[1]; human
  mean half-life: approximately 49 hours
[1]; patients treated with tafamidis at 80 mg per day
  maximal peak concentration: ~6 µg/mL

B1: NI-301.37F1: human-derived monoclonal anti-TTR antibody binding epitope TTR41-45, selective for misfolded TTR, disclosed in WO 2015/092077 A1 (antibody, V domains shown)
VH: QVQLQESGPGLVKPSETLSLTCSVSGGSIISRSSYWGWIRQPPGKGLEWIGGIYHSGNTYDNPSLKSRLTMSVDTSKNQFSLNLRSVTAADTAVYYCARIVPGGDAFDIWGQGTMVTVSS
VL: DIQMTQSPSSLSASVGDRVTIACRASQSVGTYLNWYQQKRGKAPKLLIFAASSLQSGVPSRFSGSGSGTDFTLTISSLQPEDFATYYCQQSYSSPPTFGQGTKVEIK
[2]; in the presence of TTR stabilizers tafamidis and diflunisal, 10 μg/mL
  binding to amyloidogenic TTR: maintained
[2]; in the presence of diflunisal at 10 μg/mL
  EC50 value of antibody binding to TTR amyloid: increased
[2]; in the presence of tafamidis at 10 μg/mL
  EC50 value of antibody binding to TTR amyloid: remained substantially unaffected
[3]
  binding to ATTR oligomers in solution: virtually identical
[4]; TTR tetramers in presence of diflunisal
  binding to TTR-diflunisal complexes: did not bind
[4]; TTR tetramers in presence of tafamidis
  binding to TTR-tafamidis complexes: did not bind
[4]; in presence of TTR stabilizers (conclusion)
  binding selectivity (absent binding to TTR tetramers): maintained
[4]; no stabilizer
  binding to TTR tetramers in solution: did not bind
[5]
  binding affinity to misfolded TTR: sub-nanomolar range
